According to article PMC3258384 (Journal of Molecular Biology, 2011):

Biological target: Human calmodulin (human, UniProt P0DP23 1-149)
Assay: circular dichroism

binding result: binds
B1: pCaN peptide, the CaM binding region in the RD of αCaN (peptide)
peptide: ARKEVIRNKIRAIGKMARVFSVLR
